Measurements taken from patent US9057734B2, “Optogenetic probes for measuring membrane potential” (President and Fellows of Harvard College, priority 2010, dated 2015).

How the values were obtained:
HEK-293 cells = assay: Fluorescence versus membrane potential under whole-cell voltage clamp (ramp, step, frequency response, noise); assay type: cell-based, human
Procedure: Fluorescence of Arch 3 in HEK 293 cells was readily imaged in an inverted fluorescence microscope with red illumination (λ=640 nm, I=540 W/cm^2), a high numerical aperture objective, a Cy5 filter set, and an EMCCD camera. […] Cells not expressing Arch were not fluorescent.
HEK-293 cells were grown at 37° C., 5% CO2, in DMEM supplemented with 10% FBS and penicillin-streptomycin. Plasmids were transfected using LIPOFECTAMINE™ and PLUS reagent (Invitrogen) following the manufacturer's instructions, and assayed between 48-72 hours later. The day before recording, cells were re-plated onto glass-bottom dishes (MatTek) at a density of ˜5000 cells/cm^2.
The concentration of endogenous retinal in the HEK cells was not known, so the cells were supplemented with retinal by diluting stock retinal solutions (40 mM, DMSO) in growth medium to a final concentration of 5 μM, and then placing the cells back in the incubator for 1-3 hours. All imaging and electrophysiology were performed in Tyrode's buffer (containing, in mM: 125 NaCl, 2 KCl, 3 CaCl2, 1 MgCl2, 10 HEPES, 30 glucose pH 7.3, and adjusted to 305-310 mOsm with sucrose). Only HEK cells having reversal potentials between −10 and −40 mV were included in the analysis.
(§1) Simultaneous fluorescence and whole-cell patch clamp recordings were acquired on a home-built, inverted epifluorescence microscope at room temperature. A diode laser operating at 100 mW, 640 nm (CrystaLaser, DL638-100-O) provided wide-field illumination at an intensity typically between 500-2000 W/cm^2. To minimize background signal from out-of-focus debris, illumination was often performed in through-the-objective total internal reflection fluorescence (TIRF) mode. Fluorescence emission was collected using a 60×, 1.45 NA oil immersion objective (Olympus), and separated from scattered excitation using a 660-760 nm bandpass emission filter (Chroma). For fast imaging of dynamic fluorescence responses and action potentials, images were acquired on an Andor iXon^+ 860 camera operating at up to 2,000 frames/s (using a small region of interest and pixel binning). Slower images with higher spatial resolution were acquired on an Andor iXon^+ 897 EMCCD. Custom software written in LabView (National Instruments) was used to synchronize illumination, collection of images, recording of membrane potential and cell current, and application of electrical stimuli to the cell.
Filamented glass micropipettes (WPI) were pulled to a tip resistance of 3-10 MΩ, fire polished, and filled with internal solution (containing, in mM: 125 Potassium gluconate, 8 NaCl, 0.6 MgCl2, 0.1 CaCl2, 1 EGTA, 10 HEPES, 4 Mg-ATP, 0.4 Na-GTP, pH 7.3; adjusted to 295 mOsm with sucrose). The micropipettes were positioned with a Burleigh PCS 5000 micromanipulator. Whole-cell, voltage clamp recordings were acquired using an AxoPatch 200B amplifier (Molecular Devices), filtered at 2 kHz with the internal Bessel filter, and digitized with a National Instruments PCIE-6323 acquisition board at 10 kHz. Ambient 60 Hz noise was removed using a HumBug Noise Eliminator (AutoMate Scientific). For experiments requiring rapid modulation of transmembrane potential, series resistance and whole-cell capacitance were predicted to 95% and corrected to ˜50%. Electrical stimuli were generated using the PCIE-6323 acquisition board and sent to the AXOPATCH™, which then applied these signals in either constant current or constant voltage mode.
To measure fluorescence as a function of membrane potential, a triangle wave was applied, with amplitude from −150 mV to +150 mV and period 12 s, with video recording at 100 ms per frame. A pixel weight matrix was calculated according to Eq. S2 and applied to the movie images to generate a fluorescence number for each frame. These fluorescence values were divided by their minimum value (at V=−150 mV). The result is plotted as a function of Vin FIGS. 7 and 8. […]

[1] = system: cultured rat hippocampal neurons; assay: Optical recording of action potentials under whole cell current clamp; assay type: cell-based
Excerpt: We tested Arch 3 as a voltage indicator in cultured rat hippocampal neurons, using viral delivery. […] Individual spikes were accompanied by clearly identifiable increases of fluorescence (FIG. 7A). At a 2 kHz image acquisition rate, the signal-to-noise ratio in the fluorescence (spike amplitude:baseline noise) was 10.5.
as §1
E18 rat hippocampi were purchased from BrainBits and mechanically dissociated in the presence of 1 mg/mL papain (Worthington) before plating at 5,000-30,000 cells per dish on poly-L-lysine and Matrigel-coated (BD Biosciences) glass-bottom dishes. Cells were incubated in N+ medium (100 mL Neurobasal medium, 2 mL B27 supplement, 0.5 mM glutamine, 25 μM glutamate, penicillin-streptomycin) for 3 hours. […]
A spike identification algorithm was developed that could be applied either to electrically recorded V(t) or to optically determined V(t). […]

B1: Arch 3 WT: Archaerhodopsin 3, light-driven proton pump from Halorubrum sodomense, used as fluorescent voltage indicator (protein)
chain: MDPIALQAGYDLLGDGRPETLWLGIGTLLMLIGTFYFLVRGWGVTDKDAREYYAVTILVPGIASAAYLSMFFGIGLTEVTVGGEMLDIYYARYADWLFTTPLLLLDLALLAKVDRVTIGTLVGVDALMIVTGLIGALSHTAIARYSWWLFSTICMIVVLYFLATSLRSAAKERGPEVASTFNTLTALVLVLWTAYPILWIIGTEGAGVVGLGIETLLFMVLDVTAKVGFGFILLRSRAILGDTEAPEPSAGADVSAAD
modifications: Halorubrum sodomense
notes: Archaerhodopsin 3, light-driven proton pump from Halorubrum sodomense, used as fluorescent voltage indicator
voltage steps resolved/reported (HEK-293 cells; HEK cells): 10 mV | photobleaching (HEK-293 cells; continuous 10-minute exposure, 640 nm, 540 W/cm2): 17% | fluorescence oscillation amplitude retained relative to low-frequency amplitude (HEK-293 cells; sinusoidal membrane potential, f=1 kHz): 55% | response time to a step in membrane potential (HEK-293 cells; steps between −70 mV and +30 mV): < 0.5 ms | response of fluorescence to a step in membrane potential, time (HEK-293 cells; time resolution of imaging system, rising and falling edge): ≤ 500 μs | increase of fluorescence (fold/factor) between −150 mV and +150 mV (HEK-293 cells; whole-cell voltage clamp): 2 | signal-to-noise ratio in the fluorescence (spike amplitude:baseline noise) ([1]; 2 kHz image acquisition rate): 10.5 | false-positive rate ([1]; n=269 spikes): 0.7% | change in resting potential or spike frequency during observation ([1]; up to 4 minutes of cumulative exposure): no detectable change in resting potential or spike frequency
